Assay results reported in publication PMC12581835, “A kinetic ruler controls mRNA poly(A) tail length”.
One block for each molecule: values may come before it.

Assays:
[1] = molecular target: Nab2-FRB (S. cerevisiae | not stated)
Nab2-6xHis [2] = molecular target: T1, Nab2-6xHis (Saccharomyces cerevisiae, UniProt P32505 1-525); test: EMSA; Hill coefficient 2.7; multiple shifted bands; switchSENSE: 12.5 mM HEPES-KOH pH 8.0, 75 mM KOAc, 1 mM Mg(OAc)2, 0.025 mM EDTA, 25 C; EMSA: polyadenylation buffer + 5% glycerol, 10 nM RNA, 30 C 1.5 h, native PAGE pH 6.4 at 4 C; settings: protein: recombinant; tags: C-terminal 6xHis; label: Atto680; single strand
T1 sequence: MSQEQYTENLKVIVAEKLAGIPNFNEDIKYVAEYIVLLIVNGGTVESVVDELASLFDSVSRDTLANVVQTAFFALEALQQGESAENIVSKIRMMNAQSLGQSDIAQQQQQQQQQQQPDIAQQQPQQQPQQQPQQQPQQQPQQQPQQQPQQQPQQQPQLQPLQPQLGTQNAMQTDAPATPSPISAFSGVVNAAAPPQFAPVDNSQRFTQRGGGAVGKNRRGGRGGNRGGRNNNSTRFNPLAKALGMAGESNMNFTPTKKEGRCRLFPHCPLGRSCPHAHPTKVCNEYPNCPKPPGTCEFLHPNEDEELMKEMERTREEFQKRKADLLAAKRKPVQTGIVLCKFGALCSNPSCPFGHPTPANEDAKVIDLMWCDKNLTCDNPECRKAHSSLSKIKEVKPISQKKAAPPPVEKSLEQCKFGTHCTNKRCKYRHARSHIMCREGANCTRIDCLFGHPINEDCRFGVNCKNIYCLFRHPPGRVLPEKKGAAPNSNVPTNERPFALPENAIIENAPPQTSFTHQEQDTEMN

SII-Nab2 [3] = molecular target: T2, SII-Nab2 (Saccharomyces cerevisiae, UniProt P32505 1-525); test: switchSENSE; kon 2.05e6 +/- 0.14e6 M-1 s-1; Kd only in Fig 2E table; switchSENSE: 12.5 mM HEPES-KOH pH 8.0, 75 mM KOAc, 1 mM Mg(OAc)2, 0.025 mM EDTA, 25 C; EMSA: polyadenylation buffer + 5% glycerol, 10 nM RNA, 30 C 1.5 h, native PAGE pH 6.4 at 4 C; settings: protein: recombinant; tags: N-terminal SII; label: red dye on NL-B48; chip-tethered; 68 bp dsDNA (nicked) with 3' RNA overhang 60 nt
T2 sequence: T1 sequence

SII-Nab2 [4] = molecular target: T2, SII-Nab2; test: switchSENSE; kon 1.2e6 +/- 0.17e6 M-1 s-1; Kd only in Fig 2E table; switchSENSE: 12.5 mM HEPES-KOH pH 8.0, 75 mM KOAc, 1 mM Mg(OAc)2, 0.025 mM EDTA, 25 C; EMSA: polyadenylation buffer + 5% glycerol, 10 nM RNA, 30 C 1.5 h, native PAGE pH 6.4 at 4 C; settings: protein: recombinant; tags: N-terminal SII; label: red dye on NL-B48; chip-tethered; 68 bp dsDNA (nicked) with 3' RNA overhang 30 nt
Nab2-6xHis [5] = molecular target: T1, Nab2-6xHis; test: SEC-MALS; bimodal peak; one Nab2 with 1-3 A30; dimer less stable; switchSENSE: 12.5 mM HEPES-KOH pH 8.0, 75 mM KOAc, 1 mM Mg(OAc)2, 0.025 mM EDTA, 25 C; EMSA: polyadenylation buffer + 5% glycerol, 10 nM RNA, 30 C 1.5 h, native PAGE pH 6.4 at 4 C; settings: protein: recombinant; tags: C-terminal 6xHis; single strand

- modal poly(A) tail length of the substrate RNA that escaped early inhibition, 1 µM Nab2 with rapamycin (∼42 As in a reaction without rapamycin) [1]: 36 As
Molecule: Nab2-FKBP12

B1: Atto680-A59 (R003) (ssRNA)
RNA: AAAAAAAAAAAAAAAAAAAAAAAAAAAAAAAAAAAAAAAAAAAAAAAAAAAAAAAAAAA
- binding result (Nab2-6xHis [2]): binds

B2: rA60 nanolever (mixed)
DNA 1: ATTGTGCTCGTCAGTAGTGTAAAAAAAAAAAAAAAAAAAAAAAAAAAAAAAAAAAAAAAAAAAAAAAAAAAAAAAAAAAA
DNA 2: ACACTACTGACGAGCACAATATCAGCGTTCGATGCTTCCGACTAATCAGCCATATCAGCTTACGACTA
DNA 3: TAGTCGTAAGCTGATATGGCTGATTAGTCGGAAGCATCGAACGCTGAT
modifications: 3' 60 nt RNA on DNA handle
- binding signal (SII-Nab2 [3]): ~5 fold higher affinity than rA30

B3: rA30 nanolever (mixed)
DNA 1: ATTGTGCTCGTCAGTAGTGTAAAAAAAAAAAAAAAAAAAAAAAAAAAAAA
DNA 2: B2 DNA 2
DNA 3: B2 DNA 3
modifications: 3' 30 nt RNA on DNA handle
- binding signal (SII-Nab2 [4]): ~0.2 affinity relative to rA60

Molecule: AAAAAAAAAAAAAAAAAAAAAAAAAAAAAA (ssRNA, phosphate) [A30 (R002)]
- binding result (Nab2-6xHis [5]): binds
